The data set in a line: yeast display, Sf9 membrane polyspecificity reagent, FACS + sequencing; frameworks hold sequencing errors. Summed up: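 After 36–48 hours of galactose induction, yeast (Saccharomyces cerevisiae BJ5465) displaying a synthetic nanobody library were stained at 4 °C for 1 hour with 10% biotinylated, detergent-solubilized Sf9 membrane reagent. Streptavidin microbeads enriched the stained cells before FACS sorting into low and high (top ~1%) gates on anti-HA and streptavidin fluorescence. Each clone's polyreactivity label reflects its gate of origin.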
In the case of “QFHLVESGGRLVQAGGSLRLSCAASGRIFYYYVMGWYRQAPGKERELVAVIDWSGGSTYYADSVKGRFTISRDNAKNTVYVQMNSLKPEDTAVYYCAKVWLNFSLAYEDYDYWGQGTQVTVSS”, the “polyreactivity (PSR sort gate)” value is reported as “low polyreactivity”. With “QFKLVESGGGLVQAGGSLRLICAASGITLNRNAMGRYRQAPGKEMELVARISRRGGTTYYADSVKGRFTISRDKAKNTVYLQMNSLKPEDTAVYYCNAGPYGGNPFDYWGQGTQVTVSS”, the “polyreactivity (PSR sort gate)” value is listed as “high polyreactivity”. With “QFKLVESGGGLVQAGGSLRLSCAASGSIVERKTMGWYRQAPGKEMEFVAGITQSGGRTYYADSVKGRFTISRDNAKNTVYLQMNSLKPEDTAVYYCATKTPRAWSYGYWGQGTQVTVSS”, the “polyreactivity (PSR sort gate)” value is “high polyreactivity”. With “QFQHVESGAGLVHAGGCLRLSCSASGRTFFYNAMGWYRQPPGKEREFVASITWSGSTYYADSVKGRFTISRDNAKNTVYLLMNRLKQEDTAVYYCAADRQGGLVIDSGGYDYWGQGTQVTVSS”, the “polyreactivity (PSR sort gate)” value is reported as “low polyreactivity”. As for “QFQHVESGGGLVQAGGSLRLSCAASGRTFGPYAMGCYIQAPGKERELVAAISSGGRTYYADSVKGRFTISRDNAKNTVYFQMNSLKPEDTAVYYCAATYGPSRYRYDYWGQGTQVTVSS”, the entry is “high polyreactivity”; as for “QFQHVESGGGLVQAGGSLRLSCAASGSTFGLYAMGWYRQAPGKERELVADITWSGGSTYYADSVKGRFTISRDNAKNTVYLQMNSLKPEDTAVYYCAARYPWVYYDFDYWGLGTQVTVSS”, “low polyreactivity”; as for “QFQHVESVGGLVQAGGSLRLSCAASGRIFPYYALGWYREAPGKERELVAAISQSDGSTYYADSVKGRFTISRDNAKNTVYLQMNSLKPEDTAVYYCAKRQASYTQHRKVRGDYWGQGPQVTVSS”, “low polyreactivity”. As for “QFQIVESGGGLVQAGGSLRLSCAASGSIFTQYAMGWYRQAPGKERELVAAITSGGSTYADSVKGRFTISRDNAMNTVYLQMKSLKPEDTAVYYCATPYSYRGVTFNYWGQGTQVTVSS”, the entry is “low polyreactivity”. As for “QFQIVESGGGLVQAGGSLRLSCAASGYTFTGNAMGWYRQATGKEREFVAGITWRTGRTYYADSVKGRFTISRDNAKNSVYVLMNSLKPEDTAVYYCNKDHQRRYFWSYDYWGQGTLVTVSS”, the entry is “low polyreactivity”; as for “QFQLAESGGGLVQAGGSLRLSCAASGFTFRDYAMGWSRQATGKERELVATISWRGGSTYYADSVKGRFTISRDNAKNTVYLQMNSLKPEDTAVYYCAKRPYQRSVPYGKYDYWGQGTQVTVSS”, “low polyreactivity”.

As for “QFQLEESAGGLVQAGGSLRLSCAASGRTFADYAMGWYRPAPGKETELVAAISSGGSTYFAVSVKGRFTISRDNAKNTVYLQMNSLKPEDTAVYYCTARWGYRLGYWGQGTQVTVSS”, the “polyreactivity (PSR sort gate)” value is given as “high polyreactivity”. Turning to “QFQLEESGGGLVQAGGSLRLSCAASGPIFSYNAMGLSRQATGKERELVARINWSSGRTYYADSVKGRFTISRDNAKNTVYLQMNSLKPEDTAVYYCNRVSRGPVGGYYWGQGTQVTESS”, the “polyreactivity (PSR sort gate)” value is listed as “high polyreactivity”. For the sequence “QFQLEESGGGLVQAGGSLRLSCAASGSTFGDYAMGWYRQAPGKERVLVAAINFSDGSTYYADSVKGRFTISRDNAKNTVYLQMNSLKPEDSAVYYCAKQGYLVWSGWRWYDYWGQGTQGTVSS”, the “polyreactivity (PSR sort gate)” value is “low polyreactivity”. As for “QFQLEESRGGLVQAGGSLRLSCAASGRIFDLYAMGWYRQAPGKETELVATISGSGGSTYYADSVKGRFTISRDNAKNTVYLQMNSLKPEDTAVYYCAAVSVSSWYDYWGQGTQVTVSS”, the entry is “low polyreactivity”; as for “QFQLLESGGGLVHAAGSLRLSSAASVSNFLSNAMGWYRQAPGKETELVAAITTSGTSTFYADSVKGRFTSSRDNAKNTVYLHINSLTPEDTEVYCAKDYLPYLHFVAPSTGDYDYWGQGTQVTVSS”, “low polyreactivity”.

For the sequence “QFQLLESGGGLVQAAGSLRLSCAASGGIFRNYAMGWYRKAPGKERELVAAITSSGTSTYYADSVNGRFTISRDNAKNTVYLQMNSLKPEDTAVYYFAADVTARYDYWGQGTQVTVSS”, the “polyreactivity (PSR sort gate)” value was “high polyreactivity”. For the sequence “QFQLQESGGGLVQAGGTLRLSCAASGSIFYVYGKGWYRQAPGKERELVAGINAGTNTNYADSVRGRFTISRDNAKNTVHLQMNSQKPVDTAVYYCAADGNGYQAHEYWGQGTQVTVSS”, the “polyreactivity (PSR sort gate)” value is on record as “high polyreactivity”.

As to “QFQLVDSGRGLVQAGGSLRVSCAASGITFAYYAMGWYRQAPGKERELVAAISRSGGGTYYADSVKGRFTISRDNAKNPVYLQMNSLKPEDTAVYYCNKDYPYYYAGDGRFDYWGQGTQVTVSS”, the “polyreactivity (PSR sort gate)” value was “high polyreactivity”. On to “QFQLVDSRGGLVQAGGSLRLSCAASGAIFGGYAMGWYRTAPGKARELVAGSTRSGGSTYYADSVKGRFTISRDNPKNTVYLQMNSLKPEDTAVYYCAVEIQFYRSPRIVRSYDYWGHGTQVTVSS”, for which the “polyreactivity (PSR sort gate)” value is given as “low polyreactivity”.

For “QFQLVDSRRGLVQAGGSLRVSCAASGSTFYIYAMGWSRQAPGKERELVARISGSGGSTYYADSVKGRFTISRDNAKNTVYLQMNSLKPEDTAVYYCAADDIYKYYQYYAFPYYRYDDWGQGTQVTVSS”, the “polyreactivity (PSR sort gate)” value is “low polyreactivity”. As to “QFQLVESGGCLVQAGCSLRLSCAASGFIIFSNAMGLYRQAPGKERELVAAISRIGVSTFYADSVKGRLTISRDNAKNTVYLQMNSLKPEDTAVYYCNKSNPDYDGLAIHAFDYWGQGTQVTVSS”, the “polyreactivity (PSR sort gate)” value is “low polyreactivity”.

As to “QFQLVESGGGFVQAGGSLRLSCAASGRTFYPYAMGLYRQAPGKERELVAAISSSGGSTYYADSVKGRFTISRDNAKNTVYLQMNSLKPDDTAVYYCAAVASKYKYTGGMDYWGQGTQVTVSS”, the “polyreactivity (PSR sort gate)” value is listed as “high polyreactivity”. Take “QFQLVESGGGILQAGGSLRLSCAASGFIFSSYAMGWYRQAPGKERELVAAISKRGGSTYYADSVKGRFTISRDNAKNTVYLQMNSLKPEDTAVYYCARGSYPYRSFWLTSDYWGQVTQVTVSS”: the “polyreactivity (PSR sort gate)” value was “high polyreactivity”. Consider “QFQLVESGGGIVQAGGSLRLSCAASGFTFVYYAMGWYRQAPGKERQLVAAITRSAGSTYYADSVKGRFTISRDNAKNTVYLQMNSLKPEDTAVYYCAALNSRYSKAQRMDYWGQGTQVTVSS”, for which the “polyreactivity (PSR sort gate)” value was “low polyreactivity”. As for “QFQLVESGGGLDQAGGSLRLSCAASGSIFYYNAMGWYRQAPGKERELVAAIDLNDGITYYADSVKGRFTISRDNAKNTVYLQMNSLKPEDTAVYYCAADSYYFLYDSWGQGTQVTVSS”, the entry is “high polyreactivity”; as for “QFQLVESGGGLDQAGGSLRLTCAASGLTIRWYAMGWYRQAPGKERELVAAIRWSGGSTYYADSVKGRFTISRDNAKNTVYLQMNSLKPEDTALYYCAARFLGYQSGTERDYWGQGTQVTVSS”, “high polyreactivity”.

As for “QFQLVESGGGLLQAGGSLRLSCADSGFIFCEYAMGWYRQAPGKERELVAAITWSGGRTYYADSVKGRFTISRDNAKNTVYLQMNSLKTEDTAVYYCSAYGSFWYAGFGYWGQGTQVTVSS”, the “polyreactivity (PSR sort gate)” value was “low polyreactivity”.

For “QFQLVESGGGLVPAGGSLRLSCAASGRIFTGNAMGWSRQAPGKERELVASITYSDGSTYYADSVKGRFTISRDNATNTVYLKMNSLKPEDTAVYYCAADIRWGQGTQVTVSS”, the “polyreactivity (PSR sort gate)” value was “low polyreactivity”. Take “QFQLVESGGGLVQAGASLRLSCAASGSTFVRYAMGWYRQAPGKERDLVAAITWTGGITYYADSVKGRFTISRDNAKNTVYLHMNSLKPEDTAVYYCIAEQKQYEKSYDYWGQGTQVTVSS”: the “polyreactivity (PSR sort gate)” value was “low polyreactivity”.

On to “QFQLVESGGGLVQAGGRLRLSCAASGVIFSYYAMGCYRQAPGKERELVAAISSSGSRTYYADSVKGRFTISRDNAKNTVYLQMNRLKPEDTAVYYCAARGAAKYGYWGQGTQVTVSS”, for which the “polyreactivity (PSR sort gate)” value is “high polyreactivity”.

The record behind these values is the nanobody polyreactivity screen of Harvey et al. (2022).
